Experimental data published in the RNAGym collection of RNA variant scans (doi:10.1073/pnas.2313332121).

B1: TPR t1 (parent)
chain: GACCAAUCUGCCCUCAGAGCUCGAGAACAUCUUCGGAUGCAGAGGAGGCAGGCUUCGGUGGCGCGAUAGCGCCAACGUCCUCAACCUCCAAUGCAUCCCACCACAUGAUGAUGCCUGAAGAGCCUUGGUUUUUUG

Variants of: B1
Assay: polymerase ribozyme fitness, log enrichment relative to wild type (log ratio); higher = more active; in vitro selection for triplet polymerase activity
Outline: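 Fitness measures genotype enrichment against wild-type enrichment on a logarithmic scale, with inverse-variance-weighted averaging of replicates. The logarithm is base 2, and genotypes were kept only with ≥10 input reads and ≥1 read per output in Illumina sequencing. The sequenced libraries came from one triplicate in vitro selection round, including frozen incubation at −7 °C, of PCR-built, transcribed mutant libraries of each subunit of a heterodimeric triplet polymerase ribozyme.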

Variant	polymerase ribozyme fitness (log ratio)
GACCAAUCUGCCCUCAAAGCUCGAGAACAUCUUCGGAUGCAGAGGAGGCAGGCUUCGGUGGCGCGAUAGCGCCAACGUCCUCAACCUCCAAUACAUCCCACCACAUGAUGAUGCCUGAAGCGCCUUGGUUUUUUG [G17A G93A A121C]	-1.03
GACCAAUCUGCCCUCAAAGCUCGAGAACAUCUUCGGAUGCAGAGGAGGCAGGCUUCGGUGUCGCGAUAGCGCCAACGUCCUCAACCUCCAAUGCAUCCCACCAUAUGAUGGUGCCUGAAGAGCCUUGGUUUUUUG [G17A G61U C104U A111G]	-2.95
GACCAAUCUGCCCUCAAAGCUCGAGAACAUCUUCGGAUGCAGAGGAGGCAGGCUUCGGUGGCGCGAUAGCGUCAACGUCCUCAACCUCCAAUGCAUCCCACCACAUGAUGAUGUCUGAAGAGCCUUGGUUUUUUG [G17A C72U C114U]	-5.33
GACCAAUCUGCCCUCAAAGCUCGAGAACAUCUUCGGAUGCAGAGGAGGCAGGCUUCGGUGGCGCGAUAGCGCCAACGUGCUCAACCUCCAAUGCAUCCCACCACAUGAUGAUGCCUGAAGAGCGAUGGUUUUUUG [G17A C79G C124G U125A]	-4.5
GACCAAUCUGCCCUCAAAGCUCGAGAACAUCUUCGGAUGCAGAGGAGGCAGGCUUCGGUGGCGCGAUAGCGCCAACGUCCUCAACCUCCAAUGCAUCCCACCACAUGAUGAUGCCUGAAGAACCUUGGUUUUUUG [G17A G122A]	-3.37
GACCAAUCUGCCCUCAAAGCUCGAAAACAUCUUCGGAUGCAGAGGAGGCACGGUUCGGUGGCGCGAUAGCGCCAACGUCCUCAACCUCCAAUGCAUCCCACCACAUGAUGCUGCCUGAAGAGCCUUGGUUUUUUG [G17A G25A G51C C53G A111C]	-6.66
GACCAAUCUGCCCUCAAAGCUCGAGAACAUCUUCGGAUGCAGAGGAGGCAGGCUUCGGUGGCGCGAUAGCGCCAACAUCCUCAACCUCCAAUGCAUCCCACCACAUGAUGAUGCCUGAAGAGCCUUGGUUUUUUG [G17A G77A]	-3.49
GACCAAUCUGCCCUCAAAGCUCGAGAACAUCUUCGGAUGCAGAGGAGGCAGGCUUCGGUGGCGCGAUAUCGCCAACGUCCUCAACCUCCAAUGCAUCCCACCACAUGAUGAUGCCUGAAGAGCCUUGGUUUUUUG [G17A G69U]	-1.14
GACCAAUCUGCCCUCAAAGCUCGAGAACAUCUUCGGAUGCAGAGGAGGCAGGCUUCGGUGGCGCGAUAGCGCCAACGUCCUCAACCUCCAAUGCAUCCCACCACAUGAUGAUGCUCGAAGAGCCUUGGUUUUUUG [G17A C115U U116C]	-6.73
GACCAAUCUGCCCUCAAAGCUCGAGAACAUCUUCGGAUGCAGAGGAGGCAGGCUUCGGUGGCGCGAUAGUGCCAACGUCCUCAACCUCCAAUGCAUCCCACCACAUGAUGAUGCCUGAAUAGCCUUGGUUUUUUG [G17A C70U G120U]	-2.58
GACCAAUCUGCCCUCAAAGCUCGAGAACAUCUUCGGAUGCAGAGGAGGCAGGCUUCGGUGGCGCGAUAGCGCCAACGUCCUCAACCUUCAAUGCACCCCACCACAUGAUGAUGCCUGAAGAGCCUUGGUUUUUUG [G17A C88U U96C]	-3.71
GACCAAUCUGCCCUCAAAGCUCGAGAACAUCUUCGGAUGCAGAGGAGGCAGGCUUCGGUGGCGCGAUAGCGGCAACGUCCUCAACCUCCAAUGCAUCCCACCACAUGAUGAUGCCUGAAGAGCGUUGGUUUUUUG [G17A C72G C124G]	-0.994
GACCAAUCUGCCCUCAAAGCUCGAGAACAUCUUCGGAUGCAGAGGAGGCAGGCUUCGGUGGCGCGAUAGCCCCAACGUCCUCAACCUCCAAUGCAUCCCACCACAUGAUGAUGCCUGAAGAGCCUUGGUUUUUUG [G17A G71C]	-3.64
GACCAAUCUGCCCUCAAAGCACGAGAACAUCUUCGUAUGCUGAGGAGGCAGGCUUCGGUGGCGCGAUAGCGCCAACGUCCUCACCCUCCAAUGCAUUCCACCACAUGAUGAUGCCUGAAGAGCAUUGGUUUUUUG [G17A U21A G36U A41U A84C C97U C124A]	-6.13
GACCAAUCUGCCCUCAAAGCUCGAGAACAUCUUCGGAUUCAGAGGAGGCAGGCUUCGGUGGCGCGAUAGCGCCAACGUCCUCAACCUCCAAUGCAUCCCACCACAUGAUGAUGCCUGAAGAGCCUUGGUUUUUUG [G17A G39U]	-3.39
GACCAAUCUGCCCUCAAAGCUCGAGAACAUCUUCGGAUGCAGAGGAGGCAGGCUUCGGUGGCGCGAUAGCGGCAACGUCCUCAACCUCCAAUGCAACCCACCACAUGAUGAUGCCUGAAGAGCCUUGGUUUUUUG [G17A C72G U96A]	-4.81
GACCAAUCUGCCCUCAAAGCUCGAGAACAUCUUCGGAUACAGAGGAGGCAGGCUUCGGUGGCGCGAUAGCGCCAACGUUCUCAACCUCCAAUGCAUCCCACCACAUGAUCAUGCCUGAAGAGCCUUGGUUUUUUG [G17A G39A C79U G110C]	-7.24
GACCAAUCUGCCCUCAAAGCUCGAGAACAUCUUCGGAUGCAGAGGAGGCAGGCUUCGGUGGCUCGAUAGCGCCAACGUCCUCAACCUCCAAUGCAUCCCACCACAUGAUGAUGCCUGAAGAGCCUUGGUUUUUUG [G17A G63U]	-3.9
GACCAAUCUGCCCUCAAAGCUCGAGAACAUCUUCGGAUGCAGAUGAGGUAGGCUGCGGUGGCGCGAUAGCGCCAACGUCCUCAACCUCCAAUGCAUCCCACCACAUGAUGAUGCCUGAAGAGCCUUGGUUUUUUG [G17A G44U C49U U55G]	-4.05
GACCAAUCUGCCCUCAAAGCUCGAGAACAUCUUCGGAUGCAGAGGAGGCAGUCUUCGGUGGCGCGAUAGCGCCAACGUCCUCAACCUCCAAUGCAUCCCACCACAUGAUGAUGCCUGAAGAGCCUUGGUUUUUUG [G17A G52U]	-4.1
GACCAAUCUGCCCUCAAAGCUCGAGAACAUCUUCGGAUGCAGAGGAGGCAGGCUUCGGUGGCGCGAUAGCGCCAACGUCCUCAACCUCCAAUGCAUCCCACCACAUGAUGAUGCCUGAACAGCCUUUGUUUUUUG [G17A G120C G127U]	-1.24

Variant	polymerase ribozyme fitness (log ratio)
GACCAAUCUGCCCUCAAAGCUCGAGAACAUCUUCGGAUGCAGAGGAGGCAGGCUUCGGUGGCGCGAUAGCGCAAACGUCCUCAACCUCCAAUGCAUCCCACCACAUGAUGAUGCCUGAACAGCCUUGGUUUUUUA [G17A C73A G120C G135A]	-1.5
GACCAAUCUGCCCUCAAAGCUCGAGAACAUCUUCGGAUGCAGAGGAGGCAGGCUUCGGUGGCGCGAUAGCGCCAACGUCCUCAACCUCCAAUGCAUCUCACCACAUGAUGAUGCCUGAAGAGCCUUGGUUUUUUG [G17A C98U]	-5.09
GACCAAUCUGCCCUCAAAGCUCGAGAACAUCUUCGGAUGCAGAGGAGGCAGGCUUCGGUGGCGCGAUAGCGCCAACGUCCUCAACCUCUAAUGCAUCCCACCACAUGAUGAUGCCUGAAGAGCCUUGGUUUUUUG [G17A C89U]	-3.72
GACCAAUCUGCCCUCAAAGCUCGAGAACAUCUUCGGAUGCAGAGGAGGCAGGCUUCGGUGGCGCGAUAGCGCCAACGUCCUCAACCUCGAAUGCAUCCCACCACAUGAUGAUGCCUGAAGAGCCUUGGUUUUUUG [G17A C89G]	-3.97
GACCAAUCUGCCCUCAAAGCUCGAGAACAUCUUCGGAUGCAGAGGAGGCAGGCUUCGGUGGCGCGAUAGCGUCAACGUCCUCAACCUCCUAUGCAUCCCACCACAUGAUGAUGCCUGAAGGGCCUUGGUUUUUUG [G17A C72U A90U A121G]	0.0637
GACCAAUCUGCCCUCAAAGCUCGAGAACAUCUUCGGAUGCAGAGGAGACAGGCUUCGGUGGCGCGAUAGCGCCAACGUCCUCAACCUCCAAUGCCUCCCACCACAUGAUGAAGACUGAAGAGCCUUGGUUUUUUG [G17A G48A A95C U112A C114A]	-6.73
GACCAAUCUGCCCUCAAAGCUCGAGAACAUCUUCGGAUGCAGAGGAUGCAGGCCUCGGUGGCGCGAUAGCCCCAACUUCCUCAACCUCCAAUGCAUCCCACCACAUGAUGAUGCCUCAAGAGCCUUGGUUUUUUG [G17A G47U U54C G71C G77U G117C]	-8.04
GACCAAUCUGCCCUCAAAGCUCGAGAACAUCUUCGGAUGCAGAGGAGGCAGGCUUCGGUGGCGCGAUAUCGCCAACGUCCUCAACCUCCAAUGCAUCCCACCACAUGAUGAUGCCUGGAGAGCCUUGGUUUUUUG [G17A G69U A118G]	0.157
GACCAAUCUGCCCUCAAAGCUCGAGAACAUCUUCGGAUGCAGAGGAGGCAGGCUUCGGUGGCGCGAUAGCGCCAACGUCCUCAACCUCCAAUGCAUCCCACCACAUGAUGAUGCCUGAAGAGCCUUCGUUUUUUG [G17A G127C]	-4.54
GACCAAUCUGCCCUCAAAGCUCAAGAACAUCUUCGGAUGCAGAGGAGGCAGGCUUCGGUGGCGAGAUAGCGCCAACGUCCUCAACCUCCAAUGCAUCCCACGACAUGAAGAUGCCUGAAGAGCCUUGGUUUUUUG [G17A G23A C64A C102G U109A]	-6.59
GACCAAUCUGCCCUCAAAGCUCGAGAACAUCUUCGGAUGCAGAAGAGGCAGGCUUCGGUGGCGCGAUAGCGCCAACGUCCUCAACCUCCAAUGCAUCCCACCACAUGAUGAUGCCUGAAGAGCCUUGGUUUUUUG [G17A G44A]	-3.41
GACCAAUCUGCCCUCAAAGCUCGAGAACAUCUUCGGAUGCAGAGGAGGCAGGCUUCGGUGACGUGAUAGCGCUACCGUCCUCAACCUCCAAUGCAUCCCACCACAUGAUGAUGCCUGAAGAGCCUUGGUUUUUUG [G17A G61A C64U C73U A75C]	-4.03
GACCAAUCUGCCCUCAAAGCUCGAGAACAUCUUCGGAUGCAGAGGAGGCAGGCUUCGGUGGCGCGAUAGCGCCAACGUCCUCAAUCUCCACUGCAUCCCACCACAUGGUGCUGCCUGAAGAGCUUUGGUUUUUUG [G17A C85U A91C A108G A111C C124U]	-6.83
GACCAAUCUGCCCUCAAAGCUCGAGAACAUCUUCGGAUGCAGAGGAGCGAGGCUUCGGUGGCGCGAUAGCGCCAACGUCCUCAUCCUCCAAUGCAUCCCACCACAUGAUGAUGCCUGAAGAGCUUUGGUUUUUUG [G17A G48C C49G A84U C124U]	-2.52
GACCAAUCUGCCCUCAAAGCUCGAGAACAUCUUCGGAUGCAGAGGAGGCAGGCUUCGGUGGCGCGAUAGCGCUAACGUCCUCAACCUCCAAUGCAUCCCACCACAUGAUGAUGCCUGAAGAGCCUUGGUUUUUUG [G17A C73U]	-2.84
GACCAAUCUGCCCUCAAAGCUCGAGAACAUCUUCGGAUGCAGAGGAGGCAGGCUUCGGUGGCGCGAUAGCGCCAACGUCCUCAACCUCCAAUGCAUCCCAGCACAUGAUGAUGCCUGAAGAGCCUUGGUUUUUUG [G17A C101G]	-5.5
GACCAAUCUGCCCUCAAAGCUCGAGAACAUCUUCGCAUGCAGAGGAGGCAGGCUUCGGUGGCGCGAUAGCGCCAACGUCCUCAACCUCCAAUGCAUCCCACCACAUGAUGAUGCCUGAAGAGCCUUGGUUUUUUG [G17A G36C]	-3.9
GACCAAUCUGCCCUCAAAGCUCGAGAACAUCUUCGGAUGCAGAGGAGGCAGGCUUCGGUGGCGCGAUAGCGCCAACGUCCUCAACCUCCAAUGCAUCCCACCACAUGAUGAUGACUGAAGAGCCUUGGUUUUUUG [G17A C114A]	-5.13
GACCAAUCUGCCCUCAAAGCUCGAGAACAUCUUCGGAUGCAGAGGAGGCAGGCUUCGGUGGCGCGAUAGCGCCAACGUCCUCAACCUCCAAUGCAUCCCACCACAUGAUGAUGCCUGAAGAGACUUGGUUUUUUG [G17A C123A]	-3.08
GACCAAUCUGCCCUCAAAGCUCGAGAACAUCUUCGGAUGCAGAGGAGGCAGGCUUCGGUGGCGCGAUAGCGCCAACGUCCUCAACCUCCAAUGCAUCCCACCACAUGAUGAUACCUGAAGAGCCUUGGUUUUUUG [G17A G113A]	-3.43
GACCAAUCUGCCCUCAAAGCUCGAGAACAUCUUCGGAUGCAGAGGAGGCAGGCUUCGGUGGCGCGAUAGCGCCAACGUCCUCAACCUCCAAUGCAUCCCACCACAUGAUGAUUCCUGAAGAGCCUUGGUUUUUUG [G17A G113U]	-3.81
